Laboratory results as given in patent US20230227577A1 (MYTHIC THERAPEUTICS, published 2023).

What was measured:
[1] = target: T1, recombinant human DLL3 protein (human, UniProt Q9NYJ7 27-492, limits assumed); assay: SPR, control: individual binding construct
T1 construct: also called rhu DLL3; human biotinylated DLL3
T1 sequence (looked up): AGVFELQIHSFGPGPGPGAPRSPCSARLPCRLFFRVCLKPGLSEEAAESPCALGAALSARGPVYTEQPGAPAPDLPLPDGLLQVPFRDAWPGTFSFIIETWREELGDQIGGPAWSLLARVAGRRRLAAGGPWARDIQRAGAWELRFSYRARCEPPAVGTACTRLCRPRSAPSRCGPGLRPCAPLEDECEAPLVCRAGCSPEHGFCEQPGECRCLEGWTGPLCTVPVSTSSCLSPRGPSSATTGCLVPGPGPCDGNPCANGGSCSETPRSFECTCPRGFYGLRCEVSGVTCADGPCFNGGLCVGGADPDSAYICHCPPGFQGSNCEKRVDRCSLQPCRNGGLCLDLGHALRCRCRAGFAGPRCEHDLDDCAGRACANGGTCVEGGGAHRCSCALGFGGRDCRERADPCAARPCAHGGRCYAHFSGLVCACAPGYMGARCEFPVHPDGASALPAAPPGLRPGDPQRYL
Experimental: Surface Plasmon Resonance (SPR) was used to assess the binding kinetics and binding affinity. Kinetic rate coefficients were recovered from binding analysis experiments performed with a Biacore 3000 biosensor. Concentrations of the anti-DLL3/anti-CD3/anti-HSA trispecific binding construct ranging from 1.23 nM to 300 nM were run against the SPR sensorgram surfaces immobilized with recombinant human CD3 (rhu CD3) or recombinant HSA (rHSA). Concentrations of recombinant human DLL3 (rhu DLL3) ranging from 1.23 nM to 100 nM were run against the SPR sensorgram surface immobilized with the anti-DLL3/anti-CD3/anti-HSA trispecific binding construct. The association and dissociation phase data were globally fit to a 1:1 model to determine the association rate coefficient (kₒₙ), dissociation rate coefficient (koff), the Rmax value, and the dissociation constant (KD). Results were reported as the global fits to 1:1 model±standard error. The control groups were the three corresponding individual binding constructs. All three antigen binding domains in the trispecific binding construct retain binding to the corresponding antigen.

mouse DLL3 protein = target: T2, mouse DLL3 protein (mouse, UniProt O88516 33-490, limits assumed); assay: Octet (DLL3 on AR2G tips), ELISA and FACS; values only in FIG. 3
T2 construct: also called murine DLL3
T2 sequence (looked up): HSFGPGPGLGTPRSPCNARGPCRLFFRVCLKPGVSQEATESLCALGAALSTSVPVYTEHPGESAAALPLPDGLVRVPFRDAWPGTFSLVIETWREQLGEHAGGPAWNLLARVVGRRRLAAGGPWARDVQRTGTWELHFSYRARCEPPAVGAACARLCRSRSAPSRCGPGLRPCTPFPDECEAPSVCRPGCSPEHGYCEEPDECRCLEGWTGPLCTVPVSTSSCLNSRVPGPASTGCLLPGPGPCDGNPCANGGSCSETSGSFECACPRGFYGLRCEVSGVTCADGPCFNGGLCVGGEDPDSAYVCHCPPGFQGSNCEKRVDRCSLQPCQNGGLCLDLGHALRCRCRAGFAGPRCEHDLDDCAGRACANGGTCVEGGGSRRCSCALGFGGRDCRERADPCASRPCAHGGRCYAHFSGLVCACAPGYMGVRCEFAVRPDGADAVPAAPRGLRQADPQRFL

[2] = target: T3, DLL3 target antigen coated on Octet SA tips (binning experiment) (Homo sapiens (Human), UniProt Q9NYJ7 27-492, Probably biotinylated for capture on streptavidin (SA) tips. The site is not stated.); assay: Octet binning on DLL3-coated SA tips; competitor: 3HCE87
T3 sequence: T1 sequence (looked up)
Experimental: (§1) Antibody binning experiments were carried out for 5 anti-DLL3 VHHs and an anti-human DLL3 BiTE (SEQ ID NO: 756). The target antigen was coated on a series of Octet SA tips. Each series of tips was first soaked in a periplasmic extract containing one specific VHH. After the response signals reached saturation, the tips were transferred to a mix of PEs containing again the first VHH (at the same concentration) plus a different VHH (termed secondary VHH) for each tip of the series. Secondary VHH that still bind the target antigen in the presence of the first VHH will show an increased response, as compared to the binding response of the first VHH alone. This was repeated for each VHH as primary VHH until all VHH were tested against each other in both directions (as primary and as secondary binder). From the response data, the bins were deduced for each VHH. 2HCE117 and 3HCE4 show competition with the human DLL3 BiTEs, whereas 3HCE56 and 3HCE87 show a partial competition.

[3] = target: T3, DLL3 target antigen coated on Octet SA …; assay: Octet binning on DLL3-coated SA tips; competitor: 2HCE117
Experimental: as §1

[4] = target: T3, DLL3 target antigen coated on Octet SA …; assay: Octet binning on DLL3-coated SA tips; competitor: DLL3 BiTEs
Experimental: as §1

DLL3 (ELISA DLL3) = target: T4, DLL3 (ELISA DLL3); assay: ELISA, ratio of the signal on DLL3 to the signal on the control
T4 construct: also called DLL3 protein in ELISA
T4 chain: T1 sequence (looked up)

[5] = target: T1, recombinant human DLL3 protein; assay: Fortebio Octet Red, DLL3 immobilised on tips, dilution series of the VHH, 1:1 binding model; KD error 1.39E-11; Full R2 0.9994
Experimental: Additional experiments were carried out to further characterize the binding properties of the anti-DLL3 constructs. Binding properties tested include dissociation constant (KD), off-rate (koff), binding to DLL3 protein by ELISA and binding to CHO cells expressing human, cyno or mouse DLL3. To obtain off-rate (koff), human biotinylated DLL3 was immobilized on Octet SA tips, and cynomolgus or mouse DLL3 was immobilized on Octet AR2G tips. For each DLL3 protein, the binding to a dilution series of each anti-DLL3 construct was measured using Fortebio Octet Red. The dissociation constant (KD), off-rate (koff) and other kinetic parameters for each anti-DLL3 construct were calculated using a 1:1 binding model. In addition, binding of these anti-DLL3 constructs to CHO cells expressing human, cyno or mouse DLL3 protein was analyzed using flow cytometry (FACS).

B1: 2HCE27 anti-DLL3 VHH (VHH)
VHH: QVQLQESGGGLVQAGGSLRLSCAASGRTFRSYAMGWFRQAPGKEREFIAVIIMSDGSTSYADSVKGRFTISRDNAKNTLYLQMNSLKPEDTAVYYCAARRDYFTGVYDYWGQGTQVTVSS
notes: In the binning assay it was used as a periplasmic extract; also called anti-DLL3 (2HCE27)
Kd [1]: 7.89 nM
koff [1]: 0.00064 s⁻¹
kon [1]: 80000 M⁻¹ s⁻¹
binding result (mouse DLL3 protein): binds
binning response (unit not given) [2]: 87.5
binning response (unit not given) [3]: 19900
binning response (unit not given) [4]: 83.4
DLL3 / control (DLL3 (ELISA DLL3)): 33.3
Kd [5]: 7.89 nM
